The assay addresses T1, purified YU2 gp120 protein (HIV-1 external envelope glycoprotein) (HIV-1 (strain YU2), UniProt P35961 32-498).
T1 construct: also called HIV-1 envelope glycoprotein gp120; source: purified
The experiment in a line: pull-down. The note with it: both partners purified.

The values that follow come from publication PMC3873461, “The CD8-Derived Chemokine XCL1/Lymphotactin Is a Conformation-Dependent, Broad-Spectrum Inhibitor of HIV-1” (PLoS Pathogens, 2013).

B1: recombinant wild type (WT) XCL1/lymphotactin (ligand, human, UniProt P47992 22-114, looked up)
chain: VGSEVSDKRTCVSLTTQRLPVSRIKTYTITEGSLRAVIFITKRGLKVCADPQATWVRDVVRSMDRKSNTRNNMIQTKPTGTQQSTNTAVTLTG
notes: also called XCL1 WT
Regarding B1, the binding result is “binds”.

B2: XCL1 W55D, variant that preferentially adopts the all-β, alternatively-folded dimeric structure (ligand, human, UniProt P47992 22-114, looked up)
chain: VGSEVSDKRTCVSLTTQRLPVSRIKTYTITEGSLRAVIFITKRGLKVCADPQATDVRDVVRSMDRKSNTRNNMIQTKPTGTQQSTNTAVTLTG
For the molecule B2, the binding result is on record as “binds”.
